As usually defined, the Tm is the temperature at the midpoint of the melting transition.

The source of these data is FireProtDB (doi:10.1021/bi060907v).

The conditions of the data set: Thermococcus kodakarensis (strain ATCC BAA-918 / JCM 12380 / KOD1), pH 9, reversible: Yes, whole UniProt chain shown.
Where [1] appears, read: 50 °C, GdnHCl, CD, Tris-HCl 20 mM.

B1: Ribonuclease HII wild type, O74035 (protein)
chain: MKIAGIDEAGRGPVIGPMVIAAVVVDENSLPKLEELKVRDSKKLTPKRREKLFNEILGVLDDYVILELPPDVIGSREGTLNEFEVENFAKALNSLKVKPDVIYADAADVDEERFARELGERLNFEAEVVAKHKADDIFPVVSAASILAKVTRDRAVEKLKEEYGEIGSGYPSDPRTRAFLENYYREHGEFPPIVRKGWKTLKKIAEKVESEKKAEERQATLDRYFRKV
On to B1, for which, under setting [1], the denaturant m value was 5.64 kcal/mol/M and the “denaturant midpoint (higher = more stable)” value amounted to 1.85 M. Moreover, where the note is “Thermal, DSC, Gly-NaOH 20 mM”, the melting temperature (Tm) came out at 85.2 °C, the “unfolding enthalpy (calorimetric)” value came out at 137 kcal/mol and the “unfolding enthalpy (van 't Hoff)” value was 163 kcal/mol.
